{"source": "patent US20200317779A1", "about": "(GREEN CROSS, published 2020)", "binders": {"B1": {"name": "H16 (antibody, human IgG1, lambda, L234A L235A, V domains shown)", "VH": "EVQLVESGGGLVQPGGSLKLSCAASGFTFNTYAMNWVRQASGKGLEWVARIRSKYNNYATYYADSVKDRFTISRDDSQSTLYLQMNSLKTEDTAVYYCVRHGNFGNSYVSWFAYWGQGTLVTVSS", "VL": "QAVVTQEPSLTVSPGGTVTLTCRSSTGAVTTSNYANWVQQKPGQAPRGLIGGTNKRAPWTPARFSGSLLGDKAALTLSGAQPEDEAEYYCALWYSNLWVFGGGTKLTVLG", "notes": "humanized SP34 IgG1, lambda"}, "B2": {"name": "D15 (antibody, human IgG1, lambda, L234A L235A, V domains shown)", "VH": "B1 VH with A49G", "VL": "B1 VL with D71G", "notes": "humanized SP34 IgG1, lambda"}, "B3": {"name": "D07 (antibody, human IgG1, lambda, L234A L235A, V domains shown)", "VH": "B1 VH with A49G", "VL": "B1 VL with V38F, D71G", "notes": "humanized SP34 IgG1, lambda; also called D7"}, "B4": {"name": "A08 (antibody, human IgG1, lambda, L234A L235A, V domains shown)", "VH": "B1 VH with A49G, Q78K, S79N, L81A", "VL": "B1 VL with V38F", "notes": "humanized SP34 IgG1, lambda; also called A8"}, "B5": {"name": "A15 (antibody, human IgG1, lambda, L234A L235A, V domains shown)", "VH": "B1 VH with A49G, Q78K, S79N, L81A", "VL": "B1 VL with D71G", "notes": "humanized SP34 IgG1, lambda"}, "B6": {"name": "A16 (antibody, human IgG1, lambda, L234A L235A, V domains shown)", "VH": "B1 VH with A49G, Q78K, S79N, L81A", "VL": "B1 VL", "notes": "humanized SP34 IgG1, lambda"}, "B7": {"name": "D16 (antibody, human IgG1, lambda, L234A L235A, V domains shown)", "VH": "B1 VH with A49G", "VL": "B1 VL", "notes": "humanized SP34 IgG1, lambda"}, "B8": {"name": "B07 (antibody, human IgG1, lambda, L234A L235A, V domains shown)", "VH": "B1 VH with A49G, Q78K, S79N", "VL": "B1 VL with V38F, D71G", "notes": "humanized SP34 IgG1, lambda; also called B7"}, "B9": {"name": "C08 (antibody, human IgG1, lambda, L234A L235A, V domains shown)", "VH": "B1 VH with A49G, L81A", "VL": "B1 VL with V38F", "notes": "humanized SP34 IgG1, lambda; also called C8"}, "B10": {"name": "D08 (antibody, human IgG1, lambda, L234A L235A, V domains shown)", "VH": "B1 VH with A49G", "VL": "B1 VL with V38F", "notes": "humanized SP34 IgG1, lambda; also called D8"}, "B11": {"name": "C07 (antibody, human IgG1, lambda, L234A L235A, V domains shown)", "VH": "B1 VH with A49G, L81A", "VL": "B1 VL with V38F, D71G", "notes": "humanized SP34 IgG1, lambda; also called C7"}, "B12": {"name": "Mouse human chimeric SP34 IgG1 antibody (antibody, V domains shown)", "VH": "B1 VH with G15K, S41P, T80I, S87N, V95M", "VL": "QAVVTQESALTTSPGETVTLTCRSSTGAVTTSNYANWVQEKPDHLFTGLIGGTNKRAPGVPARFSGSLIGDKAALTITGAQTEDEAIYFCALWYSNLWVFGGGTKLTVLG"}, "B13": {"name": "C15 (antibody, human IgG1, lambda, L234A L235A, V domains shown)", "VH": "B1 VH with A49G, L81A", "VL": "B1 VL with D71G", "notes": "humanized SP34 IgG1, lambda"}, "B14": {"name": "H15 (antibody, human IgG1, lambda, L234A L235A, V domains shown)", "VH": "B1 VH", "VL": "B1 VL with D71G", "notes": "humanized SP34 IgG1, lambda"}, "B15": {"name": "E16 (antibody, human IgG1, lambda, L234A L235A, V domains shown)", "VH": "B1 VH with Q78K, S79N, L81A", "VL": "B1 VL", "notes": "humanized SP34 IgG1, lambda"}, "B16": {"name": "B16 (antibody, human IgG1, lambda, L234A L235A, V domains shown)", "VH": "B1 VH with A49G, Q78K, S79N", "VL": "B1 VL", "notes": "humanized SP34 IgG1, lambda"}, "B17": {"name": "C16 (antibody, human IgG1, lambda, L234A L235A, V domains shown)", "VH": "B1 VH with A49G, L81A", "VL": "B1 VL", "notes": "humanized SP34 IgG1, lambda"}, "B18": {"name": "B08 (antibody, human IgG1, lambda, L234A L235A, V domains shown)", "VH": "B1 VH with A49G, Q78K, S79N", "VL": "B1 VL with V38F", "notes": "humanized SP34 IgG1, lambda; also called B8"}, "B19": {"name": "B15 (antibody, human IgG1, lambda, L234A L235A, V domains shown)", "VH": "B1 VH with A49G, Q78K, S79N", "VL": "B1 VL with D71G", "notes": "humanized SP34 IgG1, lambda"}, "B20": {"name": "F15 (antibody, human IgG1, lambda, L234A L235A, V domains shown)", "VH": "B1 VH with Q78K, S79N", "VL": "B1 VL with D71G", "notes": "humanized SP34 IgG1, lambda"}, "B21": {"name": "E15 (antibody, human IgG1, lambda, L234A L235A, V domains shown)", "VH": "B1 VH with Q78K, S79N, L81A", "VL": "B1 VL with D71G", "notes": "humanized SP34 IgG1, lambda"}, "B22": {"name": "G16 (antibody, human IgG1, lambda, L234A L235A, V domains shown)", "VH": "B1 VH with L81A", "VL": "B1 VL", "notes": "humanized SP34 IgG1, lambda"}, "B23": {"name": "A07 (antibody, human IgG1, lambda, L234A L235A, V domains shown)", "VH": "B1 VH with A49G, Q78K, S79N, L81A", "VL": "B1 VL with V38F, D71G", "notes": "humanized SP34 IgG1, lambda; also called A7"}, "B24": {"name": "G15 (antibody, human IgG1, lambda, L234A L235A, V domains shown)", "VH": "B1 VH with L81A", "VL": "B1 VL with D71G", "notes": "humanized SP34 IgG1, lambda"}, "B25": {"name": "F16 (antibody, human IgG1, lambda, L234A L235A, V domains shown)", "VH": "B1 VH with Q78K, S79N", "VL": "B1 VL", "notes": "humanized SP34 IgG1, lambda"}}, "note": "Numbering of substitutions follows the chain as printed.", "data": [{"target": "T1, CD3 on monkey T cells (monkey splenocytes) (monkey)", "T1 construct": "whole, on cells; The target is printed as 'monkey T cells'", "assay": "flow cytometry on monkey splenocytes, 1 µg antibody per 10^6 cells in 100 µl, PE anti-human IgG detection", "method": "Specifically, monkey splenocytes were prepared at 10⁶ cells in 100 μl FACS solution per antibody sample, and then 1 μg of antibody was used to treat the cells. The resultant was stored for 25 minutes in the dark at 4° C. Subsequently, treatment with 3 ml of FACS buffer was performed, and centrifugation was performed at 2,000 rpm for 3 minutes. Then, the supernatant was discarded.\n(§1) Next, 100 μl FACS buffer containing 1 μg of PE-conjugated human IgG antibody was used to treat the cells, and the resultant was stored for 25 minutes in the dark at 4° C. Subsequently, treatment with 3 ml of FACS buffer was performed, and centrifugation was performed at 2,000 rpm for 3 minutes. Then, the supernatant was discarded.\n(§2) The cells were treated with a 4% formaldehyde solution, stored in the dark at 4° C. for 30 minutes, and then treated with 3 ml of FACS buffer. Centrifugation was performed at 2,000 rpm for 3 minutes, and then the supernatant was discarded. Treatment with 350 μl of FACS buffer was performed, and a flow cytometer was used to perform affinity analysis of the antibodies for the […]. The analysis results are illustrated in FIG. 2.", "values": [{"binder": "B1", "Mean : Comp-PE-A": 13400}, {"binder": "B2", "Mean : Comp-PE-A": 18600}, {"binder": "B3", "Mean : Comp-PE-A": 6760}, {"binder": "B4", "Mean : Comp-PE-A": 5530}, {"binder": "B5", "Mean : Comp-PE-A": 15800}, {"binder": "B6", "Mean : Comp-PE-A": 17600}, {"binder": "B7", "Mean : Comp-PE-A": 18600}, {"binder": "B8", "Mean : Comp-PE-A": 4790}, {"binder": "B9", "Mean : Comp-PE-A": 5670}, {"binder": "B10", "Mean : Comp-PE-A": 5120}, {"binder": "B11", "Mean : Comp-PE-A": 5380}, {"binder": "B12", "Mean : Comp-PE-A": 19800}, {"binder": "B13", "Mean : Comp-PE-A": 17800}, {"binder": "B14", "Mean : Comp-PE-A": 16700}, {"binder": "B15", "Mean : Comp-PE-A": 13900}, {"binder": "B16", "Mean : Comp-PE-A": 17200}, {"binder": "B17", "Mean : Comp-PE-A": 12100}, {"binder": "B18", "Mean : Comp-PE-A": 4590}, {"binder": "B19", "Mean : Comp-PE-A": 16300}, {"binder": "B20", "Mean : Comp-PE-A": 14700}, {"binder": "B21", "Mean : Comp-PE-A": 13500}, {"binder": "B22", "Mean : Comp-PE-A": 14000}, {"binder": "B23", "Mean : Comp-PE-A": 6680}, {"binder": "B24", "Mean : Comp-PE-A": 17300}, {"binder": "B25", "Mean : Comp-PE-A": 11900}]}, {"target": "T2, CD3 on human T cells (H9 cells, ATCC HTB-176) (human)", "T2 construct": "whole, on cells; The target is printed as 'human T cells'", "T2 sequence (P07766 23-207, chain 1 of 3)": "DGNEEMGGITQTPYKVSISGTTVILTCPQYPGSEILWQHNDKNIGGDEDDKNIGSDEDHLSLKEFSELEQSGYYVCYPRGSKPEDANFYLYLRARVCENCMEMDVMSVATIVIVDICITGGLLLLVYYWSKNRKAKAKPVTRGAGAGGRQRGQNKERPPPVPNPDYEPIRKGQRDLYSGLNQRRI", "T2 sequence (P04234 22-171, chain 2 of 3, further chain)": "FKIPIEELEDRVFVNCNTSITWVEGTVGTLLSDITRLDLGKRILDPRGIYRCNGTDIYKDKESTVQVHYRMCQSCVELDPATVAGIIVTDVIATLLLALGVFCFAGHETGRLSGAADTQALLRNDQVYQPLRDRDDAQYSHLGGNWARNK", "T2 sequence (P09693 23-182, chain 3 of 3, further chain)": "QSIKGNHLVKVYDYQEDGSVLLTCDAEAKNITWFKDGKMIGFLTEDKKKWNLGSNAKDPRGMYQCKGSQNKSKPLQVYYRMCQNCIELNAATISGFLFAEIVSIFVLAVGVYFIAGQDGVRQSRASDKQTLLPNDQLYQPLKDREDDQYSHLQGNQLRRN", "assay": "flow cytometry on H9 cells, 1 µg antibody per 2x10^5 cells in 100 µl, PE anti-human IgG detection", "method": "The resultant was stored for 25 minutes in the dark at 4° C. Subsequently, treatment with 3 ml of FACS buffer was performed, and centrifugation was performed at 2,000 rpm for 3 minutes. Then, the supernatant was discarded.\nas §1, with “phycoerythrin (PE)-conjugated” for “PE-conjugated”\nas §2, with “1.” for “2.”", "values": [{"binder": "B1", "Mean : PE-A": 9350}, {"binder": "B2", "Mean : PE-A": 22600}, {"binder": "B3", "Mean : PE-A": 3770}, {"binder": "B4", "Mean : PE-A": 3080}, {"binder": "B5", "Mean : PE-A": 24000}, {"binder": "B6", "Mean : PE-A": 16700}, {"binder": "B7", "Mean : PE-A": 18300}, {"binder": "B8", "Mean : PE-A": 4810}, {"binder": "B9", "Mean : PE-A": 4680}, {"binder": "B10", "Mean : PE-A": 4220}, {"binder": "B11", "Mean : PE-A": 4620}, {"binder": "B13", "Mean : PE-A": 23100}, {"binder": "B14", "Mean : PE-A": 9620}, {"binder": "B15", "Mean : PE-A": 11100}, {"binder": "B16", "Mean : PE-A": 16800}, {"binder": "B17", "Mean : PE-A": 17700}, {"binder": "B18", "Mean : PE-A": 3780}, {"binder": "B19", "Mean : PE-A": 22900}, {"binder": "B20", "Mean : PE-A": 11200}, {"binder": "B21", "Mean : PE-A": 12800}, {"binder": "B22", "Mean : PE-A": 10300}, {"binder": "B23", "Mean : PE-A": 4310}, {"binder": "B24", "Mean : PE-A": 11600}, {"binder": "B25", "Mean : PE-A": 9530}]}]}
